Test: soluble on expression in E. coli; label from the status in PepcDB or PDB records

| Sequence | soluble on expression in E. coli |
| --- | --- |
| MPIVRWGKTIKQELSEGWSRVIQHELTGKLDGHHGGFHETGDESMSDDLSDQARSTAVKQLKALGLSTYAARTFVALISLGEGTAQDVSEVADVPRTRVYDAADELRDRGLVDVKQSSPRRYWAISTETAGRHFEQEYDHRVTVLTNALDRLASANRSTEQQGVWTVTGRDTVTGRVVDFISSADDEVVYMTAEELLTDEIAESLSTASDRGVTIRLAEMSQSVEAQLERDVPDAQLFESAWEWSDTPAGRLLMIDQQKTLVSVLVGANGGYSLEPSDETAIWGTGQSNSLVVVLKALFAWQLANNRE | not soluble |
| MPKRRYNPSANEEEKIPIVEKLYRENQESDFLGGGFCDDDDEVQERREQISEMRQKREEAAHNLIQAPENCEKCDKGLMDSWLWERYNCAVCDACRDDKGEHKLLARTEVKNTYLLKDCDLDLRKPKLRYWAKKNPHNPRYGDMKLYLKCQIETRVLEVHGSWEDLELKKELREQSKEVRSEKRFEKKLKDLRQQIRGTSGVKVDFGRPHTHEFGKETHVEEDTWRRTCITCEYEEVFEKL | not soluble |
| MPLHQVVEPAFYIVVVLDLVSGRLNGHDKDTLGLAQQLANRNSGGGAVVAIAFGELKDDSLNKAGVDRLIHINDEQYDQYNPEQRCNDLQGIIGELDPQHILLPDSINGGGDLGRRLAAALQQRPACGVWKLNDDTVVCR | not soluble |
| MPLHVVEQPAFLVAVVPDMVGGRLSSHDKDLLGLARKLAGNDGAVLAVVFGEHKESAFDSAGVDRLLHLSGGEYDGYAPEQRILALRNLENQLAPRHWLFPDSRNGGGELGRRLAAALGERPAGRVWQVEDGRCIGRAGAGREDIQRALPRLLLAAAECAEPVSETRHEVRELHMAEQVARNLPRIEDLGPVAVDPA | not soluble |
| MPLPIAAPPILASTLTLLLATTPTAAALTPEQHAAALVAQMTRQEKIAQTMNAAPAIPRLGIPAYDWWSEGLHGIARNGYATVFPQAIGLAASWNTDLLQHVGTVTSTEARAKFNLTGGPGKDHPRYAGLTLWSPNINIFRDPRWGRGMETYGEDPYLTSQLAVSFIRGLQGDTPDHPRTIATPKHFAVHSGPEQGRHSFDVDVSAYDLEATYTPAFRAAIVDGHAGSVMCAYNALHGTPACASDWLLNTRLRNDWGFNGFVVSDCDAIEDMTRFHFFRQDNASASAAALKSGNDLNCGNTYRDLNQAIARGDIDESTLDQALIRLFTARQRLGTLQPREHDPYAAIGIK | not soluble |
| MPLRQKRLYWPLFFRDDLIMEKNKLQLEYVFDRVSTRSLWRYLSTPDGLSEWFAYDVRLEDNGDFYFQWDKNSGEKASVLEQREGERIRFQWHREQDQNACFEFVIHHSELTGGKSLEVIDYIAPEEVADMEHFWNNLISRLRLSLGAPE | not soluble |
| MPLSWPPEQFAFALEQMPLTENNRRILQAFLDAPEQTLTAHSLAAAANVAGGWSAANLRIGELSRKFAPVLGSLPDAGDGDPHWWRYIASGRWDGGRFYWTLRPQLKDALLTLGWQSSESLDNEAEGVSAEEARTFVEGATRQIFVNAYERNAGARAACIAHFGTVCRVCETDLVAIYGEVARGYIQVHHLRSLAEVGRQYEVNPLTDLIPVCPNCHAMLHQRRPAYTPEELRAMLGRGQHLEHHHHHH | not soluble |
| MPLTGEYEPSPSKWAADQAELMESTDGAKGTTLGGRPVVLLTTRGAKSGKIRKTPLMRVEHDGTYAIVASLGGAPKNPVWYYNVKAEPHVELRDGSATQDMVAREVTGDERATWWDRAVAAFPDYAEYQKKTDREIPVFVLEPA | not soluble |
| MPNFFKFHTVIERHWQKPYPVLSFLLKPLSGLFAKIAAKWRADFLSGKRQSEKLSVPVVVVGNIHAGGTGKTPIAAALVSGLQEKGVKVGIISRGYGRKSKAVYVLNAASRAEDAGDEPLLLFRKTGAPTAVGSSRVEAGRALLAAHPELELIVADDGLQHYALQRDVEIAVFPAADTGRTDLDLLPNGNLREPLSRLESVDAVVVGGRAADGFMPSEHLFGSRIEAGAVYRLNRPSEKLDISTLSGKRVAAVAGIARPQRFFDTLTHMGIRLDQTVALPDHADIFNRDLPPADVVLVTEKDAVKFSDGICTDNVWVLPVCAIIEPDLAEFVLERLEGVPKAVLEHHHHHH | not soluble |
| MPNFWALPPEINSTRIYLGPGSGPILAAAQGWNALASELEKTKVGLQSALDTLLESYRGQSSQALIQQTLPYVQWLTTTAEHAHKTAIQLTAAANAYEQARAAMVPPAMVRANRVQTTVLKAINWFGQFSTRIADKEADYEQMWFQDALVMENYWEAVQEAIQSTSHFEDPPEMADDYDEAWMLNTVFDYHNENAKEEVIHLVPDVNKERGPIELVTKVDKEGTIRLVYDGEPTFSYKEHPKF | not soluble |
| MPNTADQVDPLLASLSHFVDHTDLLAEHTMNAVEWEAVEVLMPRILRGKSKEDVKQLLLAEIDGMSKKRLDAVLAGETLEESSSSEDEEEQVIGSAGESEKSESPEIPEPEAKMEEQAVEAAEASEASDDGREDGEIRDDQGNTTSTPPDPGSPKSPEKGEAEQLDTDEEIDRLLEEDLEDFL | soluble |
| MPPATNNSREEKEEETTDLSAGKGDCGIKAAATIYVNCELLGGAKKRKKKVYIIPKKNNISQRKSSSPSPKYFKIDENGKISRLPTGIPTVSIQREAFMTQPTTLRKMSQHPCR | soluble |
| MPPDEIEIEPVRQSSDKMLYCEAESPPTVEKVKPARENSETDLEIEDDEKFFTTGQKELYLEACKLMGVVPVSYFIRNMEESYVNLNHHGLGPRGTKAIAIALVSNMAVTKLELEDNCIMEEGVLSLVEMLQENYYLQEMNISNNHLGLEGARIISDFFERNSSSIWSLELSGNDFKEDSAALLCQALSTNYQIKKLDLSHNQFSDVGGEHLGQMLAINVGLTSLDLSWNNFHTRGAVALCNGLRGNVTLTKLDLSMNGFGNEVALALGEVLRLNRCLVYLDIGGNDIGNEGASKISKGLESNESLRVLKLFLNPINMDGAILLILAIKRNPKSRMEELDISNVLVSEQFMKTLDGVYAVHPQLDVVFKAVQGLSPKKTIFLLTNPMKLIQSYADQHKITIVDFFKSLNPTGTMKMSVDEFQKVMIEQNKVPLNQYQVREVIKKLDEKTGMVNFSFLNTMKP | soluble |
| MPPFKRTKIVATLGPATDDKEVIRALAEAGADVFRLNFSHGAPEDHRRRVGWVREVAEELGRTLAVLQDLQGPKIRVGRFREGQVLLRPGQRFVLTAEPVEGDEHRVSVSYKGLPEDVSPGQILLLDDGRIRLKVLEVRSPEILTEVEVGGVLSNNKGINIPGADLSIPALSEKDIQDLALGAELGVDWVAVSFVRTRDDLLLARHYLSRYGSKARLMAKIEKPSAVARFEEILEEADGIMVARGDLGVEMPLEEVPIVQKRLILRCIAAGKPVITATQMLESMVQNPSPTRAEASDVANAIFDGTDAVMLSAETAAGAYPVEAVAMMARIAKAVESSPEFLQKLNVLRPAPTPTTQDAIAQAADDVVEAVGARAIVVFTATGGSARRIARTRPQVPILALTPNPEVRNQLALVWGVYPHLAPDPQDTDDMVRIALREVKALGLAQVGDRVVIAAGVPFGVRGTTNLIRVERVG | soluble |
| MPPIPEPEIDPVLKELLYAYSVISRARRYAGMAGVPLPLSLTEINEYLATHPVLIERDEFEAVIFALDDQYFQEQCV | not soluble |
| MPPLECDVLVIGSGASGLAAAVTAAHHGLTVVVAEKASQLGGTSAWSGGWLWIPRNPLAIAEGIVEADDAPERYLRAQTHTRELDPRQRAFLRHGPEMVAFFEQHTAVQFQCGSRMPDMREGDGSARGGRSLCALPYDGRRLGPWLHKLRPPLDIVSLAGMGIAGGADMAAFFNATRSPKAALHVGKRLLRHGRDLLLHRRGLHLVNGNALVARLLRSALDRGVTLLTEKAASRLLLCEERVNGALFADGQAIYARRGVVLACGGFPHDRQRISQLMPHAPDGDQHYSAAPRENSGDGLRLGEQAGGRVSAAGAHGGAWAPVSQVPRRNGHFGHFPHLIDRAKPGFIAVRRDGRRFVNEADCYHDFMNALFAATPQAEQPEAWLICDHAAQRRYGIGWAKPFPFPTRFYQRSGYLHSGATLAQLAQRCGIDAEQLQRTVEGFNHHAAQGEDPTFLRGASAYNRAQGDPQQVPNPSLRPLLKGPFHAVKLLPGSLGTFAGLDTDASARVLDHAGQPIPGLFAVGNDMHSVMGGYYPSGGITLGPGMTFGYLAGRALSAGCADHLEHHHHHH | not soluble |
| MPPPGIPPPFPPMGLPPMSQRPPAIPPMPPGILPPMLPPMGAPPPLTQIPGMVPPMMPGMLMPAVPVTAATAPGADTASSAVAGTGPPRALWSEHVAPDGRIYYYNADDKQSVWEKPSVLKSKAELLLSQCPWKEYKSDTGKPYYYNNQSKESRWTRPKDLDDLEVLVKQEAAGKQQQQLPQTLQPQPPQPQPDPPPVPPGPTPVPTGLLEPEPGGSEDCDVLEATQPLEQGFLQQLEEGPSSSGQHQPQQEEEESKPEPERSGLSWSNREKAKQAFKELLRDKAVPSNASWEQAMKMVVTDPRYSALPKLSEKKQAFNAYKAQREKEEKEEARLRAKEAKQTLQHFLEQHERMTSTTRYRRAEQTFGELEVWAVVPERDRKEVYDDVLFFLAKKEKEQAKQLRRRNIQALKSILDGMSSVNFQTTWSQAQQYLMDNPSFAQDHQLQNMDKEDALICFEEHIRALEREEEEERERARLRERRQQRKNREAFQTFLDELHETGQLHSMSTWMELYPAVSTDVRFANMLGQPGSTPLDLFKFYVEELKARFHDEKKIIKDILKVNTAFEDFAHVISFDKRAAALDAGNIKLTFNSLLEKAEAREREREKEEARRMRRREAAFRSMLRQAVPALELGTAWEEVRERFVCDSAFEQITLESERIRLFREFLQVLEQTECQHLHTKGRKHGRKGKKHHHKRSHSPSGSESEEEELPPPSLRPPKRRRRNPSESGSEPSSSLDSVESGGAALGGRGSPSSHLLGADHGLRKAKKPKKKTKKRRHKSNSPESETDPEEKAGKESDEKEQEQDKDRELQQAELPNRSPGFGIKKEKTGWDTSESELSEGELERRRRTLLQQLDDHQ | soluble |
| MPPPTNQFKHDNIPLQTQGCEINVLCVRNPRARRIKLSVDERGVRLILPPCADLDAGTRFLLEQRAWIETQMARYASGTAATIPLRRGETTALPLRDQQLPLHWHESRYTRLELDAHGLQFYITTHTNDNTLRHTLREFYEVQARVDISDWLRKYLPGLPRPPTRVRLKPMSSQWGSLATAGHMALDLALVLGRPSAFEYVVVHELCHLIQANHSPAFWREVECRFPLWREERDYFHLKGRILKAQLRRLLQTELEHHHHHH | not soluble |
| MPPQKYHCNVCAQDITRSIHIRCVECVDFDLCIPCFTSGASLGTHHPSHPYRIIETNSYPIFDENWGADEELLLIDACETLGLGNWADIADYVGNARTKEECRDHYLKTYIESDCYPLASVELPGPVDRIAFAARKRARIEAFQPPPIIPQKPLASTPQCHEIQGYMPGRLEFDQEYMNEAELPIKDMNFDDDLHESAKHEMQLKLTMLNIYNSRLTRRAVRKQTIFNHNLLDYRRLQANEKRMSKEERNLLNKTKAFARLLTGPDYQKFVNSYHEQITLKKQISDLQEWRQMGLTTLEQGHKYERDKTQKFLLSKASASYDKQLRHVKSFNQTTSAPFQVRDIQKIVPRKPATPTMFSASADRQLLSEDEQALCSKLQIFPKPFLALKFALISASLTSKKPFQKTDAVNLFKHLDANKVEQVYDFFHNARWIGAPT | soluble |
| MPPYFSPKSEAPICGYCQLTFSQTGSMTRHRDRLHTKNHTCLICVSNCEGAPILGESIKKHLQHAHGYVDVQSCSCCHWIFENKIQLRTHLDAMKATGQPGDEVVLAKGTFAPGTLSQAAILQSKAYSANRQQKCQQSLKVDSGGFNDLSETQLKFILDNYSQIVGELESPNPKISGCRKRKCGMTIQHVLRDDDFKKIELC | not soluble |
| MPQFTTARRARHRAEQMFALVADVEKYPQFLPMCEALSIRSRKERDGKTLLIADMTVGYKLIRETFTSQVLLKPDENIIDVKYIDGPFRYLDNRWTFRPTDGGAQCDVEFFIDYEFKSRTLGLLMGTMFDLAFKKFSEAFEKRADQIYGLGELEHHHHHH | soluble |
